The values below come from the DeepSol protein solubility set.

This series in a line: soluble on expression in E. coli; label from the status in PepcDB or PDB records.
As for “MTTTIEVGMLGLGTVGSGVVERLTRSAAKIEQTQGIRLHLAAVAVNHLNAPRTVQLPIGTRLTDSLTNVVCDRKIQLVIEVMGTVATAKKAIVAALNQGKAVVTANKDLIATAGPELAALAKKQGCDLFYEASVAGGIPILRTLTDSYVTDNVQAVSGIINGTANYMLSAMATGQSYEQALATAQATGYAEADPTNDVAGIDAAYKLMILSRFAFGQELSLPQIAPTGITHLSASVCRLAAENGWQIKLLAQIQRHGSGLYCRVAPVAVPVDQPLSQINGVQNAVAVQSEAIGTSLYTGPGAGSTATANSVLNDVLVAAKHLINGYRMIRNQKRSVSLTVTRFDQLPQTYLGIGPVAPEAVKYYANEADFSVKTIADDCYQITGLSAVKRKKLRANLPLTLIPIAGTTDWKQVTENSITSPINVAILEHHHHHH”, the “soluble on expression in E. coli” value was “soluble”.
The value for “MTTTLKAIVRKPRTDGLYAVYIRIVHNRKPGYIKTNKIVDADHISKDNEPTDPVVNEYCSMLVRQYTDRLNRANTTLWSVSEIIEYLLKTDEEVCFSDYSRMFIRQMRLDGHERNAKNYQLAVAHLERYMGTTRVMFGHLTAAVLKKWIESLSKTHRAKEMYPTNVRMIFRSAIADMNDDEKGIQRIKFDPWVKVQIPKSEPSEKLAISAEECREFFNRPLPRTKMLSSLPELGRDVALLSLCLGGINTVDLYNLKKSDYHDGIIGYKRAKTKHSRKDEAYIEMRVEPFIQDTFNKYLSEEEDEFLFTFHQRYGNTDSFNANVNIGIRKICMDMGMTNKEDFYCFYTFRHTWATIAQNDCNANLYEVAFGMNHSHGFKVTRGYVKVDFTPAWALNARIIDFIFFSNKPSKQGLAKDLDESGDKMFRISAKMMIYARAYFKGEVIAEFTDIGFNNVDEVLSRIVKMFPKDIPVGCTVQIRLTNCDNHKEVVYERSKGKGF” was “not soluble”.
On to “MTVPHIPRGPVMADIAAFRLTEEEKQRLLDPAVGGIILFRRNFQNIEQLKTLTAEIKALRTPELIIAVDHEGGRVQRFIEGFTRLPAMSTLGEIWDKDGASAAETAAGQVGRVLATELSACGIDLSFTPVLDLDWGNCPVIGNRSFHRNPEAVARLALALQKGLTKGGMKSCGKHFPGHGFVEGDSHLVLPEDWRSLSELETADLAPFRIMSREGMAAVMPAHVVYPQVDTKPAGFSEIWLKQILRRDIGFKGVIFSDDLTMEGACGAGGIKERARISFEAGCDIVLVCNRPDLVDELREDFRIPDNPTLAQRWQYMANTLGSAAAQAVMQTADFQAAQAFVAGLASPQDTAGGVKVGEAF”, for which the “soluble on expression in E. coli” value is on record as “not soluble”.
Consider “MTVTFTLPLDCSFNNLWTCHAEGIERDLGKVGGGAASSGKTSTGVSRTVTRGVNLSGADFSEQDLSGVSFQQSLLRETDFHGAKLVSASFFGAELSYANLEDADLTEANLELANLRSAKLKNAVLRRAYFSGNTRLENVDIDGADFSEVILRKDQKKYLCNIANGTNSHTGVETKTSLGCNSS”, for which the “soluble on expression in E. coli” value is on record as “not soluble”.
As to “MTWLTKDGRFAVYEDPFVTKLMNTIGSMTFDGLGFTLLELYRDLVISADNYFMNYVNYGETPHDVGEESIEDPIYGASYPYWWTDLGPTLVLMLYRDYVFTSNREILEKNYNKIKEIIDWLIRKDMDNDCIPDSKGGYDNSYDGTHMYGASSYIASMFLSALTAFIKMSEILDVKIDDKYYRFLECGKKTFNSLWNGKYFILWKKNDEENTSCLNSQLLGQFWCDILGLPPITDHDKINTALRSIYELNFKASKYCLTNAVREDGSVDSSTAQLRSCWPRVSFAVAAHMILRGMVKEGIEVAKREWETIKELNPFDQSSRIDAIDGKYVGLMSYIGSTSVWLLKLALDKIRLEHHHHHH”, the “soluble on expression in E. coli” value was “not soluble”.
As to “MTYLVTGATGGLGGYALNYLKELVPMSDIYALVRSKEKGADLKAAGFNIRVGDYSDAESMKQAFAGIDRVLFVSGAPGNRQVEHENVINAAKKAGVSYIAYTSFAGADKSTSALAEDHFFTEKVIEKSGIAHTFLRNNWYFENEMPMIGGALSAGKFVYAAENGKVGWALKREYAEVAAKAVAGAGFPEILELSGPLMTYEELTKALKEATGKDFDVISSDDKGFVENLVSVGLPQPVAEMFLSFQHDIKNDQLDVTSDDFEKALGKPLTNRVDALRELLKLEHHHHHH”, the “soluble on expression in E. coli” value is given as “soluble”.
With “MTYTVGMYLAERLVQIGLKHHFAVAGDYNLVLLDQLLLNKDMKQIYCCNELNCGFSAEGYARSNGAAAAVVTFSVGAISAMNALGGAYAENLPVILISGAPNSNDQGTGHILHHTIGKTDYSYQLEMARQVTCAAESITDAHSAPAKIDHVIRTALRERKPAYLDIACNIASEPCVRPGPVSSLLSEPEIDHTSLKAAVDATVALLEKSASPVMLLGSKLRAANALAATETLADKLQCAVTIMAAAKGFFPEDHAGFRGLYWGEVSNPGVQELVETSDALLCIAPVFNDYSTVGWSAWPKGPNVILAEPDRVTVDGRAYDGFTLRAFLQALAEKAPARPASAQKSSVPTCSLTATSDEAGLTNDEIVRHINALLTSNTTLVAETGDSWFNAMRMTLPRGARVELEMQWGHIGWSVPSAFGNAMGSQDRQHVVMVGDGSFQLTAQEVAQMVRYELPVIIFLINNRGYVIEIAIHDGPYNYIKNWDYAGLMEVFNAGEGHGLGLKATTPKELTEAIARAKANTRGPTLIECQIDRTDCTDMLVQWGRKVASTNARKTTLALEHHHHHH”, the “soluble on expression in E. coli” value is listed as “soluble”.
With “MVASYEIEFIGEGEVAGILREALRTDSRVESFEEFERGFKLRLVGAKRRITIVCKGSVQSDDCLLIVNARKMPENGGIALNADKIAERCGSKPEIAMLGAIAKLGVVDLKRLMSVIYREMGYGDVLAVKKGFEATNI” the entry was “not soluble”.
On to “MVATLIIIRGNSASGKSTIAKQLQAELGENTLLLSQDYLRREMLGTKDGENTTTIPLLINLLNYGYHNCSYIILEGILRSDWYTPVWKHILKHNPNNTYAYYYDLSFQETVKRHSTR”, for which the “soluble on expression in E. coli” value was “not soluble”.
For the sequence “MVAVERVESLAKSGIISIPKEYIRPKEELESINDVFLEEKKEDGPQVPTIDLKNIESDDEKIRENCIEELKKASLDWGVMHLINHGIPADLMERVKKAGEEFFSLSVEEKEKYANDQATGKIQGYGSKLANNASGQLEWEDYFFHLAYPEEKRDLSIWPKTPSDYIEATSEYAKCLRLLATKVFKALSVGLGLEPDRLEKEVGGLEELLLQMKINYYPKCPQPELALGVEAHTDVSALTFILHNMVPGLQLFYEGKWVTAKCVPDSIVMHIGDTLEILSNGKYKSILHRGLVNKEKVRISWAVFCEPPKDKIVLKPLPEMVSVESPAKFPPRTFAQHIEHKLFGKEQEELVSEKND”, the “soluble on expression in E. coli” value is recorded as “soluble”.
As for “MVDGNYSVASNVMVPMRDGVRLAVDLYRPDADGPVPVLLVRNPYDKFDVFAWSTQSTNWLEFVRDGYAVVIQDTRGLFASEGEFVPHVDDEADAEDTLSWILEQAWCDGNVGMFGVSYLGVTQWQAAVSGVGGLKAIAPSMASADLYRAPWYGPGGALSVEALLGWSAKIGTGLITSRSDARPEDAADFVQLAAILNDVAGAASVTPLAEQPLLGRLIPWVIDQVVDHPDNDESWQSISLFERLGGLATPALITAGWYDGFVGESLRTFVAVKDNADARLVVGPWSHSNLTGRNADRKFGIAATYPIQEATTMHKAFFDRHLRGETDALAGVPKVRLFVMGIDEWRDETDWPLPDTAYTPFYLGGSGAANTSTGGGTLSTSISGTESADTYLYDPADPVPSLGGTLLFHNGDNGPADQRPIHDRDDVLCYSTEVLTDPVEVTGTVSARLFVSSSAVDTDFTAKLVDVFPDGRAIALCDGIVRMRYRETLVNPTLIEAGEIYEVAIDMLATSNVFLPGHRIMVQVSSSNFPKYDRNSNTGGVIAREQLEEMCTAVNRIHRGPEHPSHIVLPIIKRKLAAALEHHHHHH”, the “soluble on expression in E. coli” value is “soluble”.
As to “MVDGQPSLQQVLERVDEWMAKEGLLDPNVKSIFVTCGDWDLKVMLPGQCQYLGLPVADYFKQWINLKKAYSFAMGCWPKNGLLDMNKGLSLQHIGRPHSGIDDCKNIANIMKTLAYRGFIFKQTSKPF”, the “soluble on expression in E. coli” value was “not soluble”.
With “MVDMAVTPVALLEASHLHYHVQQQALINDVSLHIASGEMVAIIGPNGAGKSTLLRLLTGYLSPSHGECHLLGQNLNSWQPKALARTRAVMRQYSELAFPFSVSEVIQMGRAPYGGSQDRQALQQVMAQTDCLALAQRDYRVLSGGEQQRVQLARVLAQLWQPQPTPRWLFLDEPTSALDLYHQQHTLRLLRQLTRQEPLAVCCVLHDLNLAALYADRIMLLAQGKLVACGTPEEVLNAETLTQWYQADLGVSRHPESALPQIYLRQ” the entry was “not soluble”.
For the sequence “MVDQATLDKLEAGFKKLQEASDCKSLLKKHLTKDVFDSIKNKKTGMGATLLDVIQSGVENLDSGVGIYAPDAESYRTFGPLFDPIIDDYHGGFKLTDKHPPKQWGDINTLVGLDPAGQFIISTRVRCGRSLQGYPFNPCLTAEQYKEMEEKVSSTLSSMEDELKGTYYPLTGMSKATQQQLIDDHFLFKEGDRFLQTANACRYWPTGRGIFHNDAKTFLVWVNEEDHLRIISMQKGGDLKTVYKRLVTAVDNIESKLPFSHDDRFGFLTFCPTNLGTTMRASVHIQLPKLAKDRKVLEDIASKFNLQVRGTRGEHTESEGGVYDISNKRRLGLTEYQAVREMQDGILEMIKMEKAAA”, the “soluble on expression in E. coli” value was “soluble”.
With “MVDRFGDVLREWRQLRRMSQMDLGLSAGVSPRHISFLESGRALPSRGMVLRLCDELEVPGGARNRWLTSAGLAPAYHSRNGDAPEMAPLTQAVDWMLSRHAPYPAMAVDRHWRLKTMNRPARAMFAATGLGAGDGLIDALLDNPALAAALENRDEVERLSLTRLRTELAHFGRDPVLEQAVARLAERVARQPGAADAPMPAVIPARYRLGEAVLSFFTTITQFGATGDIAMSELRIEMFFPADDATRQMVEALWGNATPGN”, the “soluble on expression in E. coli” value is recorded as “not soluble”.
On to “MVEEQLSLSGVEEIAPKIETPKIEKRTVKERRQQVLTVLIHMLHSERGMERMTTARLAKEVGVSEAALYRYFPSKTKMFEALIEHIESTLLSRITASMRNETQTMNRIHDILQTILDFARKNPGLTRVLTGHALMFEEAQLQARVAQFFDRLEMQFVNILQMRKLREGRAFNVDERIIASHLVTLCEGQFMRYVRTNFRLNSSQSFEQQWRFIEPLFA”, for which the “soluble on expression in E. coli” value is recorded as “not soluble”.
As to “MVEERIINLSHEIKNFVYPNDPEFIVKTKKNGKYSVSELNMGVHTGTHIDYPMHVGLTNEKFENVFGKGYCVSLENMNDFFKNAPKNLEILLIKTDFSKYWEDPEYFEKECDIENHVEKLISMNLKAVGIDCCSIGNFSVHEKLLSSKIKIIENMKNLEILENKTFKFFGFPLNIEKIDGSPINAVAFLLEHHHHHH”, the “soluble on expression in E. coli” value is listed as “not soluble”.
The value for “MVEKEETKKRARSSSSSSSSSSGSSSSGSSSSGSRSSSSSSSGRSRSRSPRRRDTRPPARGGRSRSPIRRGSPPRGARADRDRPMRPSPSPPRRRRPSPSPPRRDRRDRSGSRQRRRASPRRSPAARSASPAKRVVIKNLSRNVLKTHLEEIFSIYGAIKNVDLPPDRFHNHVHRGYGYVEYDNLEDAEKSIKHMDGGQIDGMAVHVEMTIGRQSVPFQRRSSPFRRRSPPPRDRMSPMRRGGRSPPPHRRRSPMGGRGSGANNMPLGGPNRFRRASRSRSPAGRRSRS” was “soluble”; that for “MVESTRVRSKRLSFSGKKTLSSFMQVNIASLRQSGKLRTSETYRATLNSFMKFMDGKDVLLSNMDAELMMGYETYLKAQGASMNTVSFYMRILRATYNRAVDKGVIRQRFPFKHVYTGVEKTVKRAISFKVIRQLKEMDLSHSQSMEFARDMFMFSFYTRGMSFVDMAFLKKTDLNNGMLTYRRKKTGQLLSIRWEKCMQDIVDKYPGNYSTYLLPIIIHIRKDERLQYKNSICLVNRRLKEIGKKLGLVHPLTMYVARHSWASVARGKHIPLSVISEGMGHDSEKTTLIYLAALDTTVIDKANMVVLREFL” was “not soluble”.
For “MVFNRVVQIGRVVFIASGKDQGKLAAIVNVIDGNRVQIDGPSSDVTRTVRNLKDLQLTKFVLKLRVGQRTKGVKAAFDAAKVTENFQKTQWAKKIAQRAIRAKLTDFERYKLMKAKQMRNRIVRVELAKLKKAQK”, the “soluble on expression in E. coli” value was “not soluble”.
